Patent publication US20190241648A1 (STATEN BIOTECHNOLOGY B V, published 2019)
Ends that are not written are not given here.

Tests used:
Assay in all cases: cyclic peptide substitution array
ApoC3 peptide P69Y = biological target: T1, ApoC3 peptide P69Y (human, not fully specified; cyclic (thioether))
T1 peptide: DKFSEFWDLDYEV
How it was run: (§1)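 Peptide microarrays incubated with antibody samples, then stained with goat anti-human IgG (Fc) DyLight680 and anti-HA DyLight800 control antibodies, scanned at intensity 7/7 (red/green). Secondary-only pre-stain checked background binding; framing HA peptides served as quality control; substitution effects read as changes in spot intensity.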

ApoC3 peptide D66G = biological target: T2, ApoC3 peptide D66G (human, not fully specified; cyclic (thioether))
T2 peptide: DKFSEFWGLDPEV
How it was run: as §1

ApoC3 peptide D68Q = biological target: T3, ApoC3 peptide D68Q (human, cyclic (thioether))
T3 peptide: DKFSEFWDLQPEV
How it was run: as §1

ApoC3 peptide K60V = biological target: T4, ApoC3 peptide K60V (human, cyclic (thioether))
T4 peptide: DVFSEFWDLDPEV
How it was run: as §1

ApoC3 peptide D68R = biological target: T5, ApoC3 peptide D68R (human, cyclic (thioether))
T5 peptide: DKFSEFWDLRPEV
How it was run: as §1

ApoC3 peptide D59I = biological target: T6, ApoC3 peptide D59I (human, thioether (positions not given here); not fully specified (C-terminus, bridges))
T6 peptide: IKFSEFWDLDPEV
How it was run: as §1

ApoC3 peptide D59H = biological target: T7, ApoC3 peptide D59H (human, thioether (positions not given here); not fully specified (C-terminus, bridges))
T7 peptide: HKFSEFWDLDPEV
How it was run: as §1

ApoC3 peptide E63N = biological target: T8, ApoC3 peptide E63N (human, cyclic (thioether))
T8 peptide: DKFSNFWDLDPEV
How it was run: as §1

ApoC3 peptide L67W = biological target: T9, ApoC3 peptide L67W (human, thioether (positions not given here); not fully specified (bridges); also: thioether between a C-terminal Cys side chain and a modified N-terminus, the Cys is not in the chain)
T9 peptide: DKFSEFWDWDPEV
How it was run: as §1

ApoC3 peptide S62P = biological target: T10, ApoC3 peptide S62P (human, thioether (positions not given here); also: cyclic (thioether), ring places not given here)
T10 peptide: DKFPEFWDLDPEV
How it was run: as §1

ApoC3 peptide W65N = biological target: T11, ApoC3 peptide W65N (human, not fully specified; cyclic (thioether))
T11 peptide: DKFSEFNDLDPEV
How it was run: as §1

ApoC3 peptide F64M = biological target: T12, ApoC3 peptide F64M (human, thioether (positions not given here); not fully specified (bridges); also: cyclic (thioether), positions not given here)
T12 peptide: DKFSEMWDLDPEV
How it was run: as §1

ApoC3 peptide S62C = biological target: T13, ApoC3 peptide S62C (human, not fully specified; cyclic (thioether))
T13 peptide: DKFCEFWDLDPEV
How it was run: as §1

ApoC3 peptide L67M = biological target: T14, ApoC3 peptide L67M (human, thioether (positions not given here); not fully specified (bridges); also: thioether between a C-terminal Cys side chain and a modified N-terminus, the Cys is not in the chain)
T14 peptide: DKFSEFWDMDPEV
How it was run: as §1

ApoC3 peptide P69I = biological target: T15, ApoC3 peptide P69I (human, not fully specified; cyclic (thioether))
T15 peptide: DKFSEFWDLDIEV
How it was run: as §1

ApoC3 peptide L67F = biological target: T16, ApoC3 peptide L67F (human, thioether (positions not given here); not fully specified (bridges); also: thioether between a C-terminal Cys side chain and a modified N-terminus, the Cys is not in the chain)
T16 peptide: DKFSEFWDFDPEV
How it was run: as §1

ApoC3 peptide F61E = biological target: T17, ApoC3 peptide F61E (human, cyclic (thioether))
T17 peptide: DKESEFWDLDPEV
How it was run: as §1

ApoC3 peptide F61T = biological target: T18, ApoC3 peptide F61T (human, cyclic (thioether))
T18 peptide: DKTSEFWDLDPEV
How it was run: as §1

ApoC3 peptide E70L = biological target: T19, ApoC3 peptide E70L (human, cyclic (thioether))
T19 peptide: DKFSEFWDLDPLV
How it was run: as §1

ApoC3 peptide K60M = biological target: T20, ApoC3 peptide K60M (human, cyclic (thioether))
T20 peptide: DMFSEFWDLDPEV
How it was run: as §1

ApoC3 peptide V71Q = biological target: T21, ApoC3 peptide V71Q (human, not fully specified; cyclic (thioether))
T21 peptide: DKFSEFWDLDPEQ
How it was run: as §1

ApoC3 peptide K60N = biological target: T22, ApoC3 peptide K60N (human, cyclic (thioether))
T22 peptide: DNFSEFWDLDPEV
How it was run: as §1

ApoC3 peptide K60T = biological target: T23, ApoC3 peptide K60T (human, cyclic (thioether))
T23 peptide: DTFSEFWDLDPEV
How it was run: as §1

ApoC3 peptide L67C = biological target: T24, ApoC3 peptide L67C (human, cyclic (thioether))
T24 peptide: DKFSEFWDCDPEV
How it was run: as §1

ApoC3 peptide F61Q = biological target: T25, ApoC3 peptide F61Q (human, cyclic (thioether))
T25 peptide: DKQSEFWDLDPEV
How it was run: as §1

ApoC3 peptide D68A = biological target: T26, ApoC3 peptide D68A (human, cyclic (thioether))
T26 peptide: DKFSEFWDLAPEV
How it was run: as §1

ApoC3 peptide V71Y = biological target: T27, ApoC3 peptide V71Y (human, not fully specified; cyclic (thioether))
T27 peptide: DKFSEFWDLDPEY
How it was run: as §1

ApoC3 peptide D66F = biological target: T28, ApoC3 peptide D66F (human, not fully specified; cyclic (thioether))
T28 peptide: DKFSEFWFLDPEV
How it was run: as §1

ApoC3 peptide F61K = biological target: T29, ApoC3 peptide F61K (human, cyclic (thioether))
T29 peptide: DKKSEFWDLDPEV
How it was run: as §1

ApoC3 peptide F64H = biological target: T30, ApoC3 peptide F64H (human, thioether (positions not given here); not fully specified (bridges); also: cyclic (thioether), positions not given here)
T30 peptide: DKFSEHWDLDPEV
How it was run: as §1

ApoC3 peptide W65Q = biological target: T31, ApoC3 peptide W65Q (human, cyclic (thioether))
T31 peptide: DKFSEFQDLDPEV
How it was run: as §1

B1: Llama antibody 5E5 (antibody, V domains shown)
VH: QLQLVESGGGLVQPGGSLRLSCAASGFTFGTYSMRWVRQVPRKALEWVSSISTDGGGTAYRDSVKGRFTISRDNAKNTLYLQMNNLKPEDTAIYYCVIAGYSDWGQGTQVTVSS
VL: ATMLTQSPGSLSVVPGESASISCKTSQGLVHSDGKTYFYWFLQKPGQSPQQLIYQVSNRASGVPDRFTGSGSGTDFTLKISGVKAEDAGVYYCAQGTYYPHTFGSGTRLEIK
notes: detected with goat anti-human IgG (Fc); also called mAb 5E5
In the case of B1, the “% of binding to wild-type peptide” value (ApoC3 peptide P69Y) is reported as 15.4%, the “% of binding to wild-type peptide” value (ApoC3 peptide D66G) is reported as 0% and the “% of binding to wild-type peptide” value (ApoC3 peptide D68Q) is reported as 0.96%. For the same binder, the “% of binding to wild-type peptide” value (ApoC3 peptide K60V) was 101%, the “% of binding to wild-type peptide” value (ApoC3 peptide D68R) was 0% and the “% of binding to wild-type peptide” value (ApoC3 peptide D59I) was 49.1%. The “% of binding to wild-type peptide” value (ApoC3 peptide D59H) was 52.8%, the “% of binding to wild-type peptide” value (ApoC3 peptide E63N) was 31.3% and the “% of binding to wild-type peptide” value (ApoC3 peptide L67W) was 1.45%. The “% of binding to wild-type peptide” value (ApoC3 peptide S62P) was 0%, the “% of binding to wild-type peptide” value (ApoC3 peptide W65N) was 0% and the “% of binding to wild-type peptide” value (ApoC3 peptide F64M) was 132%. The “% of binding to wild-type peptide” value (ApoC3 peptide S62C) was 0%, the “% of binding to wild-type peptide” value (ApoC3 peptide L67M) was 12.5% and the “% of binding to wild-type peptide” value (ApoC3 peptide P69I) was 48%. The “% of binding to wild-type peptide” value (ApoC3 peptide L67F) was 0.37%, the “% of binding to wild-type peptide” value (ApoC3 peptide F61E) was 180% and the “% of binding to wild-type peptide” value (ApoC3 peptide F61T) was 40.3%. The “% of binding to wild-type peptide” value (ApoC3 peptide E70L) was 59.1%, the “% of binding to wild-type peptide” value (ApoC3 peptide K60M) was 186% and the “% of binding to wild-type peptide” value (ApoC3 peptide V71Q) was 86.8%. For the same binder, the “% of binding to wild-type peptide” value (ApoC3 peptide K60N) was 153%, the “% of binding to wild-type peptide” value (ApoC3 peptide K60T) was 177% and the “% of binding to wild-type peptide” value (ApoC3 peptide L67C) was 0%. For the same binder, the “% of binding to wild-type peptide” value (ApoC3 peptide F61Q) was 75.6%, the “% of binding to wild-type peptide” value (ApoC3 peptide D68A) was 1.75% and the “% of binding to wild-type peptide” value (ApoC3 peptide V71Y) was 87.4%. For the same binder, the “% of binding to wild-type peptide” value (ApoC3 peptide D66F) was 0%, the “% of binding to wild-type peptide” value (ApoC3 peptide F61K) was 13.5% and the “% of binding to wild-type peptide” value (ApoC3 peptide F64H) was 84.5%. For the same binder, the “% of binding to wild-type peptide” value (ApoC3 peptide W65Q) was 0%.
